Data published in FireProtDB (doi:10.1021/bi000849s).

B1: Lysozyme C, P61626 (parent)
chain: MKALIVLGLVLLSVTVQGKVFERCELARTLKRLGMDGYRGISLANWMCLAKWESGYNTRATNYNAGDRSTDYGIFQINSRYWCNDGKTPGAVNACHLSCSALLQDNIADAVACAKRVVRDPQGIRAWVAWRNRCQNRDVRQYVQGCGV

Variants of: B1
Settings: Homo sapiens, Thermal, DSC, reversible: yes, structure 1LZ1, whole UniProt chain shown; for ddG of mutation (higher = less stable) / unfolding free energy: 65 °C
[1] = pH 2.2, glycine hydrochloride 0.05 M
[2] = pH 2.3, glycine hydrochloride 0.05 M, KCl 0.2 M
[3] = pH 4.5, sodium acetate 0.02 M, KCl 0.2 M

Row | Variant | Tm [1] | change of melting temperature, mutant - wild type (higher = more stable) [1] | Tm (pH 4, sodium acetate 0.02 M) | change of melting temperature, mutant - wild type (higher = more stable) (pH 4, sodium acetate 0.02 M) | Tm [2] | change of melting temperature, mutant - wild type (higher = more stable) [2] | ddG of mutation (higher = less stable) (pH 4, sodium acetate 0.02 M) | unfolding free energy (pH 4, sodium acetate 0.02 M) | ddG of mutation (higher = less stable) [3] | unfolding free energy [3] | Tm [3] | change of melting temperature, mutant - wild type (higher = more stable) [3]
1 | D36N | 56 °C | -1.5 °C | 75.5 °C | -4.6 °C | – | – | – | – | – | – | – | –
2 | D120N | 58.1 °C | 0.6 °C | – | – | 56.7 °C | 0.5 °C | 0.67 kcal/mol | 4.76 kcal/mol | -0.07 kcal/mol | 4.13 kcal/mol | 77.9 °C | 0.2 °C
3 | E25Q | 57.8 °C | 0.3 °C | 76.2 °C | -3.9 °C | 54.6 °C | -1.6 °C | 1.43 kcal/mol | 3.99 kcal/mol | 1.29 kcal/mol | 2.77 kcal/mol | 75.5 °C | -2.2 °C
4 | D138N | 57.8 °C | 0.3 °C | 78.3 °C | -1.8 °C | 56.9 °C | 0.7 °C | 0.67 kcal/mol | 4.76 kcal/mol | -0.05 kcal/mol | 4.13 kcal/mol | 77.8 °C | 0.1 °C
5 | D85N | 56.8 °C | -0.7 °C | 74 °C | -6.1 °C | 55.2 °C | -1 °C | 2.25 kcal/mol | 3.18 kcal/mol | 1.7 kcal/mol | 2.37 kcal/mol | 72.5 °C | -5.2 °C
6 | D67N | 57.5 °C | 0 °C | 77.4 °C | -2.7 °C | – | – | 1 kcal/mol | 4.42 kcal/mol | – | – | – | –
